Bridge positions count the residues as written; N and C are the ends. Ends that are not written are not given here. I, II: the chains in the order shown. * marks the point of attachment. Palmitoyl = CCCCCCCCCCCCCCCC(=O)*

The results in this text go back to patent US12570709B2, “Self-assembling peptide amphiphiles displaying a transforming growth factor beta 1 (TGF-ß1) mimetic epitope” (Northwestern University, priority 2021, dated 2026).

The nature of series [1]: Rheology of PA hydrogels (strain sweep, G′/G″ crossover). Type of series: physicochemical. As to conditions: PA gels, 10 mol % co-assemblies. On the procedure: Gels were made using 2 wt % PA solutions prepared as previously described, using 10 mol % co-assemblies of epitope PA with diluent PA. 12-well chamber slides (Ibidi) were coated with 0.01 mg/mL poly-D-lysine (Sigma-Aldrich) solution and incubated overnight at 37° C. The wells were washed three times with water and air-dried for at least 30 minutes. 120 μL of PA solution was pipetted evenly into the well and gelling solution comprised of 110 mM NaCl, 3 mM KCl, and 25 mM CaCl2 was pipetted dropwise on top of the PA solution. The gels were incubated at 37° C. for 30 minutes, and then excess gelling solution was removed.
Measurements were performed on an Anton Paar MCR302 rheometer with a 25 mm parallel-plate fixture. 120 μL of the PA/HA hybrid slurry was placed on the bottom plate and 30 μL of a 50 mM CaCl2/75 mM NaCl gelling solution was placed on the upper fixture. The fixture was lowered to a gap of 0.5 mm for 10 min during which time a 0.1% oscillatory strain was applied with a 10 rad/s angular frequency. The gap height was allowed to vary to keep the normal force at 0 N. Next, a strain sweep was performed at 10 rad/s from 0.1% to 100% strain to measure the strain to break the gel.

Series [2] has as its system C28/I2 human articular chondrocytes.
Protocol: PA solutions (backbone PA, TGF PA, ln TGF PA, and peptide only) were prepared at 1 wt % as previously described, under sterile conditions. For cell treatments lasting <24 h, PA treatment solutions or native rhTGF-β1 protein (R&D Systems) were diluted in starvation medium, which comprised of DMEM High Glucose Medium (Gibco) supplemented with 0.5% fetal bovine serum (Denville Scientific), 100 U/mL penicillin, and 100 μg/mL streptomycin (Gibco). For cell treatments lasting 24 h or more, PA treatment solutions or native rhTGF-β1 protein (R&D Systems) were diluted in complete growth medium. PA solutions were prepared at a range of concentrations, 1, 10, 50, and 100 μM, where the concentration refers to the concentration of the epitope PA.
For cell viability assays, cells were seeded in 48-well plates at a density of approximately 15,400 cells/well and cultured for 24 h. Cells were then treated with PA in solution for 24 h or 3 days in vitro.
For 2D viability assays, cells were cultured and treated with PA solutions in vitro as previously described. After 24 h or 3 days of culture, cells were washed with HBSS (Gibco), and media was exchanged with HBSS containing 2 μM Calcein AM (Invitrogen) and 100 ng/mL propidium iodide (Sigma-Aldrich) for 30 minutes at 37° C. Cells were washed with HBSS and imaged.
In series [3] the test system is human chondrocytes encapsulated in PA hydrogels. The series can be described thus: F-actin ICC and confocal microscopy of chondrocytes encapsulated in PA gels. Type of series: cell-based. As to conditions: three days in vitro. On the procedure: Fixed samples were permeabilized and blocked in a solution of 0.1% (v/v) Triton X-100 and 1% normal horse serum (Invitrogen) for 2 hours at room temperature. Samples were incubated with primary antibodies overnight at 4° C. The following primary antibodies were used: rabbit anti-Sox9 (1:500, Abcam), mouse anti-Aggrecan (1:500, ThermoFisher), mouse anti-Collagen II (1:500, ThermoFisher), and mouse anti-Nuclei (1:500, Sigma-Aldrich). The next day, samples were incubated with AlexaFluor 488 secondary antibody, AlexaFluor 555 secondary antibody, Phalloidin AlexaFluor 488, and/or Phalloidin AlexaFluor 633 (1:1000, Invitrogen) for 2-3 h at room temperature. For 2D cell culture, samples were then incubated with DAPI (1:1000, Invitrogen) for 10 minutes at room temperature. If not already on a glass coverslip, samples were mounted with Immu-Mount (Thermo Scientific) and imaged on a Nikon A1R Spectral microscope. Image analysis was performed using ImageJ software.
Chondrocytes were trypsinized and resuspended in growth media for counting, and then pelleted and resuspended to 6×10^7 cells/mL in growth media. The cell solution was mixed 1:2 v/v with sterile PA solution prepared at 3 wt % in 30 mM NaCl. For gels also encapsulating rhTGF-β1 protein (R&D Systems), soluble protein was added to PA solutions after thermal annealing. 120 μL of PA/cell solution was mixed thoroughly by pipetting gently and then placed into PDL-coated 12-well chamber slides (Ibidi). Sterile gelling solution, comprised of 110 mM NaCl, 3 mM KCl, and 25 mM CaCl2, was pipetted dropwise on top of the PA/cell solution and the gels were incubated for 30 minutes at 37° C. Following incubation, excess gelling solution was removed and 250 μL of growth media was added to each well. The media was removed after 3 days for LDH viability assays as described above. For ICC, after 3 days of in vitro culture, gels were fixed in 4% paraformaldehyde for 30 minutes at room temperature.

Take “TGF PA-a: backbone PA-a (SEQ ID NO: 7) conjugated to cyclic TGF-β1 mimetic peptide (SEQ ID NO: 1) by a linker; co-assembled with diluent Backbone PA-a (chain Palmitoyl-AAEEK-OH; peptide CESPLKRQC; disulfide II:1-II:9; not fully specified (some residues); also: co-assembled with diluent backbone PA-a)”: in series [1], the “G′/G″ crossover % strain” value is listed as 5.80 ± 1.40% and the “G′/G″ crossover storage modulus” value amounted to 0.63 ± 1.14 kPa. Moreover, in series [2], the “biocompatibility compared with corresponding Backbone PA-b systems” value is “higher biocompatibility”. In addition, the “morphology and distribution of encapsulated cells” value in series [3] is “compact, elliptical morphologies and were well-dispersed”. Moreover, the “cells within the bulk of the gel” value in series [3] (equal concentrations of cells encapsulated) is “remained inside the gels and survived three days in vitro”.
